Among the data in article PMC9541495, “Understanding the interaction of 14‐3‐3 proteins with hDMX and hDM2: a structural and biophysical study” (The Febs Journal, 2022) are Kd values, retold here.

In one experiment the target is T1, 14‐3‐3σ (human, UniProt P31947 1-248).
T1 construct: 14-3-3 sigma, human, full-length protein from the pProEx HTb-His-14-3-3 construct (used in the FA assays); Written as the protomer; tag removal is told only for the ∆C proteins; source: E. coli BL21(DE3), purified (Ni2+-NTA, dialysis)
T1 sequence (looked up): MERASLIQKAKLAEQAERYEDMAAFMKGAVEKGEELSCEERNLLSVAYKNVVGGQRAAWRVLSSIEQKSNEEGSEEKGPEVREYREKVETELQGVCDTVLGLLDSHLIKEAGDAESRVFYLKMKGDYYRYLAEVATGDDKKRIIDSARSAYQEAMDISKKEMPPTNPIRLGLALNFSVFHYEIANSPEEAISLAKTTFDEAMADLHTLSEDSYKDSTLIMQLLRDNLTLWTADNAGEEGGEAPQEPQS
The experiment is described as follows: fluorescence polarisation; fluorescence anisotropy, direct titration: 14-3-3 protein titrated (1/2 dilution series) against 50 nM FAM-Ahx tracer peptide; 10 mM HEPES, 150 mM NaCl, 0.1% Tween 20, 0.1% BSA, pH 7.4; 384 well plates, triplicates; protein concentration as 14-3-3 monomer; 1:1 fit, biphasic curves fitted as two separate 1:1 events (Kd1, Kd2). The conditions noted are these: both partners purified.

For another experiment, the target named is T2, 14‐3‐3γ (human, UniProt P61981 1-247).
T2 construct: 14-3-3 gamma, human, full-length protein from the pProEx HTb-His-14-3-3 construct; Written as the protomer; tag removal is told only for the ∆C proteins; source: E. coli BL21(DE3), purified (Ni2+-NTA, dialysis)
T2 sequence (looked up): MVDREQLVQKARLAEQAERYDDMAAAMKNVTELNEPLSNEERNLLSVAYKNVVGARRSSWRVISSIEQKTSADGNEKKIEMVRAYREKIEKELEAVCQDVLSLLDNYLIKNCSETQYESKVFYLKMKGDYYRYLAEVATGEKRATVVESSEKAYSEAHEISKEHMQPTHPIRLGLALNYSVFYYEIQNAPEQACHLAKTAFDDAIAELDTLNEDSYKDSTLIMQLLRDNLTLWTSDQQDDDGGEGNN
The experiment is described as above. Particulars: both partners purified.

[ ]: non-standard residue; d: D form. pS = N[C@@H](COP(=O)(O)O)C(=O)O; FAM = 5,6-carboxyfluorescein; Ahx = NCCCCCC(=O)O Some results are limits rather than exact numbers.

B1: FAM‐Ahx‐hDM2_(160‐171) ^pSer166 (peptide)
peptide: {FAM-Ahx}-SRRRAI[pS]ETEEN-NH2
notes: hDM2 (human double minute 2 protein), human, residues 160-171; Tracer form used in the FA assays; also called hDM2_(160‐171) ^Ser166; source: synthetic peptide (Fmoc SPPS, HPLC purified)
As a reminder, the Kd is the concentration at which binding is half-saturated. A lower Kd goes with tighter binding. On to B1, for which the dissociation constant (Kd) worked out at 32.7 ± 1.4 µM with 14‐3‐3σ and 3.9 ± 0.3 µM with 14‐3‐3γ.

B2: FAM‐Ahx‐hDM2_(180‐192) ^pSer186 (peptide)
peptide: {FAM-Ahx}-QRKRHK[pS]DSISLS-NH2
notes: hDM2 (human double minute 2 protein), human, residues 180-192; Tracer form used in the FA assays; source: synthetic peptide (Fmoc SPPS, HPLC purified)
As for B2, the Kd is over 170 µM with 14‐3‐3σ and 82.9 ± 2.1 µM with 14‐3‐3γ.

B3: FAM‐Ahx‐hDMX_(335‐349) ^pSer342 (peptide)
peptide: {FAM-Ahx}-SKLTHSL[pS]TSDITAI-NH2
notes: hDMX (human double minute 4 protein, hDM4), human, residues 335-349; Tracer form used in the FA assays; source: synthetic peptide (Fmoc SPPS, HPLC purified)
In the case of B3, the values for the Kd with 14‐3‐3σ and with 14‐3‐3γ were 136 ± 3.6 µM and 37.8 ± 0.7 µM, respectively.

B4: FAM‐Ahx‐hDMX_(361‐374) ^pSer367 (peptide)
peptide: {FAM-Ahx}-DCRRTI[pS]APVVRPK-NH2
notes: Tracer form used in the FA assays; source: synthetic peptide (Fmoc SPPS, HPLC purified)
As for B4, the Kd in the experiment with 14‐3‐3σ amounted to 3.6 ± 0.4 µM; with 14‐3‐3γ it was 0.53 ± 0.04 µM.
